Test results reported in the supplement of paper PMC6755084.

system: F1*sub RNA substrate (template-directed ligation); assay: fraction ligated after 30 min (ligated reads / total reads); higher = more ligase activity; sequences stand for … in GAGACCGCAACTGAAAAGTTGT…AGTTCTGCACGTAGAAGCAAAAGGC; conditions: 42 °C
Procedure: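 Chip-synthesised pool of F1* ligase ribozyme variants (all single and double substitutions, single, double and triple deletions in the catalytic core and GAA bulge, plus designed variants) was transcribed with T7 and reacted as a pool with excess substrate F1*sub for 30 min at 42 C in 50 mM EPPS pH 8.5, 25 mM MgCl2. Ligated and unligated bands were separated by PAGE, barcoded by RT and deep sequenced; fraction ligated = ligated reads / total reads per variant, relative activity = FL / FL of wild type (0.826). Sequences are the DNA template of the ribozyme.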

Row | Sequence | fraction ligated
1 | ATCACTTGTCGAAGACACTTGGATGGGTTGA [3d191] | 0.728
2 | ATCACTTGTCGAAGACACTTTGATGGGTTGA [3d192] | 0.655
3 | ATCACTTGTCGAAGACACTTTGGAGGGTTGA [3d194] | 0.128
4 | ATCACTTGTCGAAGACACTTTGGATGGGTTA [3d196] | 0.707
5 | ATCACTTGTCGAAGACACTTTGGATGGGTTG [3d197] | 0.795
6 | ATCACTTGTCGAAGACACTTTGGATGGGTTGA [2d11] | 0.777
7 | ATCACTTGTCGAAGACACTTTGGATGGTTGA [3d195] | 0.714
8 | ATCACTTGTCGAAGACACTTTGGTGGGTTGA [3d193] | 0.0564
9 | ATCACTTGTCGAAGACATTTGGATGGGTTGA [3d190] | 0.762
10 | ATCACTTGTCGAAGACCTTTGGATGGGTTGA [3d189] | 0.75
11 | ATCACTTGTCGAAGCACTTTGGATGGGTTGA [3d187] | 0.736
12 | ATCACTTGTCGAGACACTTTGGATGGGTTGA [3d185] | 0.757
13 | ATCACTTGTCGTAAAACTTTGGATGGGTTGA [3d211] | 0.768
14 | ATCACTTGTCGTAAACACTTGGATGGGTTGA [3d214] | 0.742
15 | ATCACTTGTCGTAAACACTTTGATGGGTTGA [3d215] | 0.521
16 | ATCACTTGTCGTAAACACTTTGGAGGGTTGA [3d217] | 0.0797
17 | ATCACTTGTCGTAAACACTTTGGATGGGTTA [3d219] | 0.54
18 | ATCACTTGTCGTAAACACTTTGGATGGGTTG [3d220] | 0.75
19 | ATCACTTGTCGTAAACACTTTGGATGGGTTGA [2d13] | 0.78
20 | ATCACTTGTCGTAAACACTTTGGATGGTTGA [3d218] | 0.557
21 | ATCACTTGTCGTAAACACTTTGGTGGGTTGA [3d216] | 0.0249
22 | ATCACTTGTCGTAAACATTTGGATGGGTTGA [3d213] | 0.777

Row | Sequence | fraction ligated
23 | ATCACTTGTCGTAAACCTTTGGATGGGTTGA [3d212] | 0.758
24 | ATCACTTGTCGTAACACTTTGGATGGGTTGA [3d199] | 0.779
25 | ATCACTTGTCGTAAGAACTTGGATGGGTTGA [3d232] | 0.751
26 | ATCACTTGTCGTAAGAACTTTGATGGGTTGA [3d233] | 0.533
27 | ATCACTTGTCGTAAGAACTTTGGAGGGTTGA [3d235] | 0.0738
28 | ATCACTTGTCGTAAGAACTTTGGATGGGTTA [3d237] | 0.351
29 | ATCACTTGTCGTAAGAACTTTGGATGGGTTG [3d238] | 0.794
30 | ATCACTTGTCGTAAGAACTTTGGATGGGTTGA [2d15] | 0.821
31 | ATCACTTGTCGTAAGAACTTTGGATGGTTGA [3d236] | 0.273
32 | ATCACTTGTCGTAAGAACTTTGGTGGGTTGA [3d234] | 0.0239
33 | ATCACTTGTCGTAAGAATTTGGATGGGTTGA [3d231] | 0.757
34 | ATCACTTGTCGTAAGACACTGGATGGGTTGA [3d253] | 0.701
35 | ATCACTTGTCGTAAGACACTTGATGGGTTGA [3d254] | 0.164
36 | ATCACTTGTCGTAAGACACTTGGAGGGTTGA [3d256] | 0.0205
37 | ATCACTTGTCGTAAGACACTTGGATGGGTTA [3d258] | 0.214
38 | ATCACTTGTCGTAAGACACTTGGATGGGTTG [3d259] | 0.687
39 | ATCACTTGTCGTAAGACACTTGGATGGGTTGA [2d18] | 0.761
40 | ATCACTTGTCGTAAGACACTTGGATGGTTGA [3d257] | 0.216
41 | ATCACTTGTCGTAAGACACTTGGTGGGTTGA [3d255] | 0.00771
42 | ATCACTTGTCGTAAGACACTTTATGGGTTGA [3d260] | 0.0125
43 | ATCACTTGTCGTAAGACACTTTGAGGGTTGA [3d262] | 0.0273
44 | ATCACTTGTCGTAAGACACTTTGATGGGTTA [3d264] | 0.0628

Row | Sequence | fraction ligated
45 | ATCACTTGTCGTAAGACACTTTGATGGGTTG [3d265] | 0.518
46 | ATCACTTGTCGTAAGACACTTTGATGGGTTGA [2d19] | 0.702
47 | ATCACTTGTCGTAAGACACTTTGATGGTTGA [3d263] | 0.0782
48 | ATCACTTGTCGTAAGACACTTTGGAGGGTTA [3d271] | 0.0188
49 | ATCACTTGTCGTAAGACACTTTGGAGGGTTG [3d272] | 0.094
50 | ATCACTTGTCGTAAGACACTTTGGAGGGTTGA [2d21] | 0.189
51 | ATCACTTGTCGTAAGACACTTTGGAGGTTGA [3d270] | 0.0103
52 | ATCACTTGTCGTAAGACACTTTGGATGGGTT [3d275] | 0.392
53 | ATCACTTGTCGTAAGACACTTTGGATGGGTTA [2d23] | 0.747
54 | ATCACTTGTCGTAAGACACTTTGGATGGGTTG [2d24] | 0.769
55 | ATCACTTGTCGTAAGACACTTTGGATGGGTTGA [1d1] | 0.781
56 | ATCACTTGTCGTAAGACACTTTGGATGGTTA [3d273] | 0.68
57 | ATCACTTGTCGTAAGACACTTTGGATGGTTG [3d274] | 0.691
58 | ATCACTTGTCGTAAGACACTTTGGATGGTTGA [2d22] | 0.76
59 | ATCACTTGTCGTAAGACACTTTGGATGTGGTTGA [s38] | 0.693
60 | ATCACTTGTCGTAAGACACTTTGGGGGTTGA [3d266] | 0.0143
61 | ATCACTTGTCGTAAGACACTTTGGTGGGTTA [3d268] | 0.00829
62 | ATCACTTGTCGTAAGACACTTTGGTGGGTTG [3d269] | 0.0136
63 | ATCACTTGTCGTAAGACACTTTGGTGGGTTGA [2d20] | 0.0391
64 | ATCACTTGTCGTAAGACACTTTGGTGGTTGA [3d267] | 0.0134
65 | ATCACTTGTCGTAAGACACTTTGTGGGTTGA [3d261] | 0.0128
66 | ATCACTTGTCGTAAGACATTGGATGGGTTGA [3d246] | 0.739

Row | Sequence | fraction ligated
67 | ATCACTTGTCGTAAGACATTTGATGGGTTGA [3d247] | 0.0818
68 | ATCACTTGTCGTAAGACATTTGGAGGGTTGA [3d249] | 0.0168
69 | ATCACTTGTCGTAAGACATTTGGATGGGTTA [3d251] | 0.66
70 | ATCACTTGTCGTAAGACATTTGGATGGGTTG [3d252] | 0.739
71 | ATCACTTGTCGTAAGACATTTGGATGGGTTGA [2d17] | 0.78
72 | ATCACTTGTCGTAAGACATTTGGATGGTTGA [3d250] | 0.445
73 | ATCACTTGTCGTAAGACATTTGGTGGGTTGA [3d248] | 0.00393
74 | ATCACTTGTCGTAAGACCTTGGATGGGTTGA [3d239] | 0.716
75 | ATCACTTGTCGTAAGACCTTTGATGGGTTGA [3d240] | 0.311
76 | ATCACTTGTCGTAAGACCTTTGGAGGGTTGA [3d242] | 0.04
77 | ATCACTTGTCGTAAGACCTTTGGATGGGTTA [3d244] | 0.645
78 | ATCACTTGTCGTAAGACCTTTGGATGGGTTG [3d245] | 0.706
79 | ATCACTTGTCGTAAGACCTTTGGATGGGTTGA [2d16] | 0.741
80 | ATCACTTGTCGTAAGACCTTTGGATGGTTGA [3d243] | 0.712
81 | ATCACTTGTCGTAAGACCTTTGGTGGGTTGA [3d241] | 0.0169
82 | ATCACTTGTCGTAAGACTTTGGATGGGTTGA [3d221] | 0.727
83 | ATCACTTGTCGTAAGCACTTGGATGGGTTGA [3d224] | 0.716
84 | ATCACTTGTCGTAAGCACTTTGATGGGTTGA [3d225] | 0.393
85 | ATCACTTGTCGTAAGCACTTTGGAGGGTTGA [3d227] | 0.0599
86 | ATCACTTGTCGTAAGCACTTTGGATGGGTTA [3d229] | 0.34
87 | ATCACTTGTCGTAAGCACTTTGGATGGGTTG [3d230] | 0.731
88 | ATCACTTGTCGTAAGCACTTTGGATGGGTTGA [2d14] | 0.782

Row | Sequence | fraction ligated
89 | ATCACTTGTCGTAAGCACTTTGGATGGTTGA [3d228] | 0.195
90 | ATCACTTGTCGTAAGCACTTTGGTGGGTTGA [3d226] | 0.0296
91 | ATCACTTGTCGTAAGCATTTGGATGGGTTGA [3d223] | 0.731
92 | ATCACTTGTCGTAAGCCTTTGGATGGGTTGA [3d222] | 0.744
93 | ATCACTTGTCGTAGAACTTTGGATGGGTTGA [3d201] | 0.867
94 | ATCACTTGTCGTAGACACTTGGATGGGTTGA [3d204] | 0.74
95 | ATCACTTGTCGTAGACACTTTGATGGGTTGA [3d205] | 0.715
96 | ATCACTTGTCGTAGACACTTTGGAGGGTTGA [3d207] | 0.211
97 | ATCACTTGTCGTAGACACTTTGGATGGGTTA [3d209] | 0.728
98 | ATCACTTGTCGTAGACACTTTGGATGGGTTG [3d210] | 0.782
99 | ATCACTTGTCGTAGACACTTTGGATGGGTTGA [2d12] | 0.789
100 | ATCACTTGTCGTAGACACTTTGGATGGTTGA [3d208] | 0.766
101 | ATCACTTGTCGTAGACACTTTGGTGGGTTGA [3d206] | 0.0928
102 | ATCACTTGTCGTAGACATTTGGATGGGTTGA [3d203] | 0.731
103 | ATCACTTGTCGTAGACCTTTGGATGGGTTGA [3d202] | 0.767
104 | ATCACTTGTCGTAGCACTTTGGATGGGTTGA [3d200] | 0.749
105 | ATCACTTGTCGTGACACTTTGGATGGGTTGA [3d198] | 0.746
106 | ATCACTTGTCTAAACACTTTGGATGGGTTGA [3d173] | 0.77
107 | ATCACTTGTCTAAGAACTTTGGATGGGTTGA [3d175] | 0.728
108 | ATCACTTGTCTAAGACACTTGGATGGGTTGA [3d178] | 0.73
109 | ATCACTTGTCTAAGACACTTTGATGGGTTGA [3d179] | 0.594
